Like-named read-outs stand apart in the source and are kept apart here. Values belong to the binder of their own block, whether it stands above or below them.
Tests used:
[1] = target: T1, BAFF (PeproTech, Cat: 310-13) (UniProt Q9Y275 134-285); assay: ELISA, BAFF coated, anti-human Fc-HRP
[2] = target: T1, BAFF (PeproTech, Cat: 310-13); assay: ELISA, BAFF coated, anti-human Fc-HRP, OD450
Procedure: (§1) The capabilities of TACI-BCMA fusion proteins (B575701, B575702, B575703, and B575704) to bind to BAFF and APRIL were assessed by ELISA as follows:
(§2) BAFF (PeproTech, Cat: 310-13) or ARPIL (Acro Biosystems, Cat: APL-H52D1) was diluted to 1 μg/mL with PBS, and a 96-well plate (Costar, Cat: 3590) was coated with the dilution overnight at 4° C. The plate was washed with PBST and blocked with Blocking Buffer (PBST containing 1% BSA) at 37° C. for 1 h. The plate was tapped. The test antibodies were diluted with Blocking Buffer. Incubation was performed at 37° C. for 1.5 h. The plate was washed with PBST. An HRP-mouse anti-human Fc antibody (GenScript, Cat: A01854-200) was diluted with Blocking Buffer. Incubation was performed at 37° C. for 40 min. The plate was washed with PBST. 100 μL of TMB substrate solution (Biopanda, Cat: TMB-S-003) was added, and color development was performed at 37° C. for 3 min. 100 μL of ELISA stop solution (Solarbio, Cat: C1058) was added. OD450 was measured.

[3] = target: T2, APRIL (Acro Biosystems, Cat: APL-H52D1) (UniProt O75888 115-250, limits assumed); assay: ELISA, APRIL coated, anti-human Fc-HRP, OD450
T2 construct: also called ARPIL; A proliferation-inducing ligand
T2 sequence (looked up): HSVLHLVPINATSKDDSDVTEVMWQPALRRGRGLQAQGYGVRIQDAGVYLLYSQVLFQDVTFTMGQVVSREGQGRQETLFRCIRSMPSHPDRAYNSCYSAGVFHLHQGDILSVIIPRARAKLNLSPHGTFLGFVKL
Procedure: as §1, §2

[4] = target: recombinant human BAFF (R&D cat: 7537-BF-025/CF) (human, UniProt Q9Y275 134-285, limits assumed); assay: cell-based or functional assay
[5] = target: T3, recombinant human ARPIL (R&D cat: 5860-AP-010/CF) (human, UniProt O75888 105-250, limits assumed); assay: cell-based or functional assay
T3 sequence (looked up): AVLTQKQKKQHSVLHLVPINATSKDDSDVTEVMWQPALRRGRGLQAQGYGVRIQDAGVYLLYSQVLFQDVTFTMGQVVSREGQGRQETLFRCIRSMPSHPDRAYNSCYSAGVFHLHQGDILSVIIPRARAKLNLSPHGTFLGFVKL

[6] = target: T2, APRIL (Acro Biosystems, Cat: APL-H52D1); assay: ELISA, APRIL coated, anti-human Fc-HRP, OD450; remark: listed apart in the source
Procedure: The capabilities of B613301, B613302, and B613303, which are fusion proteins of anifrolumab and TACI-BCMA, to bind to BAFF and APRIL were assessed by ELISA as follows:
as §2

[7] = target: T2, APRIL (Acro Biosystems, Cat: APL-H52D1); assay: ELISA, APRIL coated, anti-human Fc-HRP, OD450; remark: listed apart in the source
Procedure: The capabilities of fusion proteins B606401, B637302, B746201, and B805201 to bind to BAFF and APRIL were assessed by ELISA as follows:
as §2, with “plate” for “plate (Costar, Cat: 3590)”
The EC₅₀ value for the capability of B637302 to bind to APRIL decreased to 1/7 to ⅙ of that of telitacicept.

B1: B575704 (Fc fusion)
chain: MLQMAGQCSQNEYFDSLLHACIPCQLRCSSNTPPLTCQRYCNASVTNSVKGTNASRVDQEERFPQGLWTGVAMRSCPEEQYWDPLLGTCMSCKTICNHQSQRTCAAFCRSLSCRKEQGKFYDHLLRDCISCASICGQHPKQCAYFCENKLRSPVNLPPELDKTHTCPPCPAPEAEGAPSVFLFPPKPKDTLMISRTPEVTCVVVDVSHEDPEVKFNWYVDGVEVHNAKTKPREEQYNSTYRVVSVLTVLHQDWLNGKEYKCKVSNKALPSSIEKTISKAKGQPREPQVYTLPPSRDELTKNQVSLTCLVKGFYPSDIAVEWESNGQPENNYKTTPPVLDSDGSFFLYSKLTVDKSRWQQGNVFSCSVMHEALHNHYTQKSLSLSPGK
notes: TACI-BCMA fusion protein; also called BCMA-ECD-TACI-T2-Fc
- EC50 relative to that of telitacicept [1]: 0.25 ratio
- Emax [2]: 2.29 nM
- Emax [3]: 2.68 nM

B3: B575703 (Fc fusion)
chain: SRVDQEERFPQGLWTGVAMRSCPEEQYWDPLLGTCMSCKTICNHQSQRTCAAFCRSLSCRKEQGKFYDHLLRDCISCASICGQHPKQCAYFCENKLRSPVNLPPELMLQMAGQCSQNEYFDSLLHACIPCQLRCSSNTPPLTCQRYCNASVTNSVKGTNADKTHTCPPCPAPEAEGAPSVFLFPPKPKDTLMISRTPEVTCVVVDVSHEDPEVKFNWYVDGVEVHNAKTKPREEQYNSTYRVVSVLTVLHQDWLNGKEYKCKVSNKALPSSIEKTISKAKGQPREPQVYTLPPSRDELTKNQVSLTCLVKGFYPSDIAVEWESNGQPENNYKTTPPVLDSDGSFFLYSKLTVDKSRWQQGNVFSCSVMHEALHNHYTQKSLSLSPGK
notes: TACI-BCMA fusion protein; also called TACI-T2-BCMA-ECD-Fc
- EC50 relative to that of telitacicept [1]: 0.5 ratio
- Emax [2]: 2.43 nM
- Emax [3]: 2.78 nM

B4: B575702 (Fc fusion)
chain: MLQMAGQCSQNEYFDSLLHACIPCQLRCSSNTPPLTCQRYCNASVTNSVKGTNALSCRKEQGKFYDHLLRDCISCASICGQHPKQCAYFCENKLRSPGDKTHTCPPCPAPEAEGAPSVFLFPPKPKDTLMISRTPEVTCVVVDVSHEDPEVKFNWYVDGVEVHNAKTKPREEQYNSTYRVVSVLTVLHQDWLNGKEYKCKVSNKALPSSIEKTISKAKGQPREPQVYTLPPSRDELTKNQVSLTCLVKGFYPSDIAVEWESNGQPENNYKTTPPVLDSDGSFFLYSKLTVDKSRWQQGNVFSCSVMHEALHNHYTQKSLSLSPGK
notes: TACI-BCMA fusion protein; also called BCMA-ECD-TACI-d2-Fc
- EC50 relative to that of telitacicept [1]: 0.25 ratio
- Emax [2]: 2.24 nM
- Emax [3]: 2.64 nM

B5: B575701 (Fc fusion)
chain: LSCRKEQGKFYDHLLRDCISCASICGQHPKQCAYFCENKLRSPGMLQMAGQCSQNEYFDSLLHACIPCQLRCSSNTPPLTCQRYCNASVTNSVKGTNADKTHTCPPCPAPEAEGAPSVFLFPPKPKDTLMISRTPEVTCVVVDVSHEDPEVKFNWYVDGVEVHNAKTKPREEQYNSTYRVVSVLTVLHQDWLNGKEYKCKVSNKALPSSIEKTISKAKGQPREPQVYTLPPSRDELTKNQVSLTCLVKGFYPSDIAVEWESNGQPENNYKTTPPVLDSDGSFFLYSKLTVDKSRWQQGNVFSCSVMHEALHNHYTQKSLSLSPGK
notes: TACI-BCMA fusion protein; also called TACI-d2-BCMA-ECD-Fc
- EC50 relative to that of telitacicept [1]: 0.5 ratio
- Emax [2]: 2.31 nM
- Emax [3]: 2.69 nM

The next lines start with the values.

- Flow cytometry proliferating B cell proportion (%), mean, BAFF-induced, drug at 10 nM [4]: 36%
- Flow cytometry proliferating B cell proportion (%), mean, BAFF-induced, drug at 100 nM [4]: 30.7%
- Flow cytometry proliferating B cell proportion (%), mean, BAFF-induced, drug at 1000 nM [4]: 24.3%
- Flow cytometry proliferating B cell proportion (%), mean, APRIL-induced, drug at 4.12 nM [5]: 48.1%
- Flow cytometry proliferating B cell proportion (%), mean, APRIL-induced, drug at 12.35 nM [5]: 49.2%
- Flow cytometry proliferating B cell proportion (%), mean, APRIL-induced, drug at 37.04 nM [5]: 50.1%
- Flow cytometry proliferating B cell proportion (%), mean, APRIL-induced, drug at 111.11 nM [5]: 50.3%
- Flow cytometry proliferating B cell proportion (%), mean, APRIL-induced, drug at 333.33 nM [5]: 49.1%
- Flow cytometry proliferating B cell proportion (%), mean, APRIL-induced, drug at 1000.00 nM [5]: 46.3%
- Emax [2]: 2.28 nM
- Emax [3]: 2.62 nM
- Emax [6]: 2.5 nM
- Emax [7]: 2.98 nM
B2: Telitacicept (RCT-18) (Fc fusion)
chain: SRVDQEERFPQGLWTGVAMRSCPEEQYWDPLLGTCMSCKTICNHQSQRTCAAFCRSLSCRKEQGKFYDHLLRDCISCASICGQHPKQCAYFCENKLRSPVNLPPELDKTHTCPPCPAPEAEGAPSVFLFPPKPKDTLMISRTPEVTCVVVDVSHEDPEVKFNWYVDGVEVHNAKTKPREEQYNSTYRVVSVLTVLHQDWLNGKEYKCKVSNKALPSSIEKTISKAKGQPREPQVYTLPPSRDELTKNQVSLTCLVKGFYPSDIAVEWESNGQPENNYKTTPPVLDSDGSFFLYSKLTVDKSRWQQGNVFSCSVMHEALHNHYTQKSLSLSPGK
notes: Positive control, TACI-Fc

- Emax [6]: 2.49 nM
B6: B613301 (other)
heavy: EVQLVQSGAEVKKPGESLKISCKGSGYIFTNYWIAWVRQMPGKGLESMGIIYPGDSDIRYSPSFQGQVTISADKSITTAYLQWSSLKASDTAMYYCARHDIEGFDYWGRGTLVTVSSASTKGPSVFPLAPSSKSTSGGTAALGCLVKDYFPEPVTVSWNSGALTSGVHTFPAVLQSSGLYSLSSVVTVPSSSLGTQTYICNVNHKPSNTKVDKRVEPKSCDKTHTCPPCPAPEFEGGPSVFLFPPKPKDTLMISRTPEVTCVVVDVSHEDPEVKFNWYVDGVEVHNAKTKPREEQYNSTYRVVSVLTVLHQDWLNGKEYKCKVSNKALPASIEKTISKAKGQPREPQVYTLPPSRDELTKNQVSLTCLVKGFYPSDIAVEWESNGQPENNYKTTPPVLDSDGSFFLYSKLTVDKSRWQQGNVFSCSVMHEALHNHYTQKSLSLSPGK
light: EIVLTQSPGTLSLSPGERATLSCRASQSVSSSFFAWYQQKPGQAPRLLIYGASSRATGIPDRLSGSGSGTDFTLTITRLEPEDFAVYYCQQYDSSAITFGQGTRLEIKRTVAAPSVFIFPPSDEQLKSGTASVVCLLNNFYPREAKVQWKVDNALQSGNSQESVTEQDSKDSTYSLSSTLTLSKADYEKHKVYACEVTHQGLSSPVTKSFNRGECGGGGSGGGGSLSCRKEQGKFYDHLLRDCISCASICGQHPKQCAYFCENKLRSPGMLQMAGQCSQNEYFDSLLHACIPCQLRCSSNTPPLTCQRYCNASVTNSVKGTNA
notes: Fusion protein of anifrolumab and TACI-BCMA

- Emax [6]: 2.52 nM
B7: B613302 (other)
heavy: B6 heavy
light: EIVLTQSPGTLSLSPGERATLSCRASQSVSSSFFAWYQQKPGQAPRLLIYGASSRATGIPDRLSGSGSGTDFTLTITRLEPEDFAVYYCQQYDSSAITFGQGTRLEIKRTVAAPSVFIFPPSDEQLKSGTASVVCLLNNFYPREAKVQWKVDNALQSGNSQESVTEQDSKDSTYSLSSTLTLSKADYEKHKVYACEVTHQGLSSPVTKSFNRGECGGGGSGGGGSMLQMAGQCSQNEYFDSLLHACIPCQLRCSSNTPPLTCQRYCNASVTNSVKGTNALSCRKEQGKFYDHLLRDCISCASICGQHPKQCAYFCENKLRSPG
notes: as for B6
